# In article PMC4211667, “Cell Fate Regulation Governed by a Repurposed Bacterial Histidine Kinase” (PLoS Biology, 2014):
# Like-named read-outs stand apart in the source and are kept apart here.
# B1: PleC histidine kinase/phosphatase, P37894 1-842 (enzyme)
# chain: VAHREFIDSERRFRLAVEAARCGIWEWDLNGDQVYLSDVTGAMFGWGGGGVVSGQDLLERISIDHRERVRQALANAAMYGAFDVSFRVPASEQGARSLWIDARGQGFGKPGSEGHARIIGVALDVTEERIAQARAQAAENRLRDAIESVSEAFVLWDRQGRLLMCNRNYRSVFSLEPKILKPGAARAEVNRFAALAIKQDHPAPDGAKGVREAEMMDGRWIQISERRTAEGGLVMTAADITAIKTQEEARRRNEEQLQNAVAGLERSQEQLAELARKYETEKVKAESANKAKSEFLANMSHELRTPLNAINGFSEIMMNEMFGPLGDQRYKGYSQDIHSSGQHLLALINDILDMSKIEAGKMNLKFESMHLEDVAEDAVRLVRNRAEAAGLKLDIDFPQLPEIEADYRAVKQVLLNLLSNAIKFTPRAGSVTVRAEVRRDPFGDLIKVSVTDTGIGIAKEDLARLAKPFEQVESQFSKTTQGTGLGLALTKSLITMHDGVLEMHSTPGEGTTVSFTLPVRHSDQKITRDFVAA
# modifications: not checked
# B2: DivL(152–769) Y562A (domain or fragment, Caulobacter crescentus, UniProt Q9RQQ9 152-769, looked up)
# chain: RADSGLPTAARFAAFVDSVVEPCWIAGADGQAIWGNAAFVRAVGAASAQAPALAGKSFDRGADAVVVEAAGKGERREALRWINVEGRRRAFRLSAQPLDGGGVGVFCADVTEIEDVRDAFKKHVEAHDETLNHIAEAVAIFSQTRRLSYHNTAFAELWGLEPAWLADRPTHGEVLDRLRQRRRLPETIDYAGWKAAELARYEDLGPQADDLWDLPDGRTLKVVRQPHPLGGMLLIYSDITGELRLKAQYNALIQVQQATLDKLNDAVAVFGSDGRLRLHNEAFETFWNVTPHALEAAGDFEGVVELCVPRLHDLSFWRELKGRVADPDPQMRAPTSGEVRTSDSRIVLYQSRPLPDGATLIAFADVTDTRDLQSALADRSAALAEAERLKRDFVGNVSYELRTPLTTIIGASELLERADGISERGRNHVAAVRAAATQLARSIDDVLDMAQIDAGEMALEIEDIRVSDLLLNAQERALKDAQLGGVTLAVECEEDVGLIRGDGKRLAQTLDHLVENALRQTPPGGRVTLSARRALGEVRLDVSDTGRGVPFHVQAHIFDRFVGRDRGGPGLGLALVKALVELHGGWVALESEPGNGSTFTCHLPETQQPGAMQPELGF
# notes: DivL pseudo-histidine kinase, Caulobacter crescentus, residues 152-769; source: E. coli Rosetta (DE3) pLysS, purified (Ni-NTA, gel filtration)
# B3: DivL(152–769) T557N (domain or fragment, Caulobacter crescentus, UniProt Q9RQQ9 152-769, looked up)
# chain: RADSGLPTAARFAAFVDSVVEPCWIAGADGQAIWGNAAFVRAVGAASAQAPALAGKSFDRGADAVVVEAAGKGERREALRWINVEGRRRAFRLSAQPLDGGGVGVFCADVTEIEDVRDAFKKHVEAHDETLNHIAEAVAIFSQTRRLSYHNTAFAELWGLEPAWLADRPTHGEVLDRLRQRRRLPETIDYAGWKAAELARYEDLGPQADDLWDLPDGRTLKVVRQPHPLGGMLLIYSDITGELRLKAQYNALIQVQQATLDKLNDAVAVFGSDGRLRLHNEAFETFWNVTPHALEAAGDFEGVVELCVPRLHDLSFWRELKGRVADPDPQMRAPTSGEVRTSDSRIVLYQSRPLPDGATLIAFADVTDTRDLQSALADRSAALAEAERLKRDFVGNVSYELRTPLNTIIGYSELLERADGISERGRNHVAAVRAAATQLARSIDDVLDMAQIDAGEMALEIEDIRVSDLLLNAQERALKDAQLGGVTLAVECEEDVGLIRGDGKRLAQTLDHLVENALRQTPPGGRVTLSARRALGEVRLDVSDTGRGVPFHVQAHIFDRFVGRDRGGPGLGLALVKALVELHGGWVALESEPGNGSTFTCHLPETQQPGAMQPELGF
# notes: as for B2
# B4: DivL(152–769) Y550H (domain or fragment, Caulobacter crescentus, UniProt Q9RQQ9 152-769, looked up)
# chain: RADSGLPTAARFAAFVDSVVEPCWIAGADGQAIWGNAAFVRAVGAASAQAPALAGKSFDRGADAVVVEAAGKGERREALRWINVEGRRRAFRLSAQPLDGGGVGVFCADVTEIEDVRDAFKKHVEAHDETLNHIAEAVAIFSQTRRLSYHNTAFAELWGLEPAWLADRPTHGEVLDRLRQRRRLPETIDYAGWKAAELARYEDLGPQADDLWDLPDGRTLKVVRQPHPLGGMLLIYSDITGELRLKAQYNALIQVQQATLDKLNDAVAVFGSDGRLRLHNEAFETFWNVTPHALEAAGDFEGVVELCVPRLHDLSFWRELKGRVADPDPQMRAPTSGEVRTSDSRIVLYQSRPLPDGATLIAFADVTDTRDLQSALADRSAALAEAERLKRDFVGNVSHELRTPLTTIIGYSELLERADGISERGRNHVAAVRAAATQLARSIDDVLDMAQIDAGEMALEIEDIRVSDLLLNAQERALKDAQLGGVTLAVECEEDVGLIRGDGKRLAQTLDHLVENALRQTPPGGRVTLSARRALGEVRLDVSDTGRGVPFHVQAHIFDRFVGRDRGGPGLGLALVKALVELHGGWVALESEPGNGSTFTCHLPETQQPGAMQPELGF
# notes: DivL pseudo-histidine kinase, Caulobacter crescentus, residues 152-769; also called DivL Y550H; source: E. coli Rosetta (DE3) pLysS, purified (Ni-NTA, gel filtration)
# B5: DivL(152–769) R553A (domain or fragment, Caulobacter crescentus, UniProt Q9RQQ9 152-769, looked up)
# chain: RADSGLPTAARFAAFVDSVVEPCWIAGADGQAIWGNAAFVRAVGAASAQAPALAGKSFDRGADAVVVEAAGKGERREALRWINVEGRRRAFRLSAQPLDGGGVGVFCADVTEIEDVRDAFKKHVEAHDETLNHIAEAVAIFSQTRRLSYHNTAFAELWGLEPAWLADRPTHGEVLDRLRQRRRLPETIDYAGWKAAELARYEDLGPQADDLWDLPDGRTLKVVRQPHPLGGMLLIYSDITGELRLKAQYNALIQVQQATLDKLNDAVAVFGSDGRLRLHNEAFETFWNVTPHALEAAGDFEGVVELCVPRLHDLSFWRELKGRVADPDPQMRAPTSGEVRTSDSRIVLYQSRPLPDGATLIAFADVTDTRDLQSALADRSAALAEAERLKRDFVGNVSYELATPLTTIIGYSELLERADGISERGRNHVAAVRAAATQLARSIDDVLDMAQIDAGEMALEIEDIRVSDLLLNAQERALKDAQLGGVTLAVECEEDVGLIRGDGKRLAQTLDHLVENALRQTPPGGRVTLSARRALGEVRLDVSDTGRGVPFHVQAHIFDRFVGRDRGGPGLGLALVKALVELHGGWVALESEPGNGSTFTCHLPETQQPGAMQPELGF
# notes: as for B2
# B6: DivL(152–769) (domain or fragment)
# chain: RADSGLPTAARFAAFVDSVVEPCWIAGADGQAIWGNAAFVRAVGAASAQAPALAGKSFDRGADAVVVEAAGKGERREALRWINVEGRRRAFRLSAQPLDGGGVGVFCADVTEIEDVRDAFKKHVEAHDETLNHIAEAVAIFSQTRRLSYHNTAFAELWGLEPAWLADRPTHGEVLDRLRQRRRLPETIDYAGWKAAELARYEDLGPQADDLWDLPDGRTLKVVRQPHPLGGMLLIYSDITGELRLKAQYNALIQVQQATLDKLNDAVAVFGSDGRLRLHNEAFETFWNVTPHALEAAGDFEGVVELCVPRLHDLSFWRELKGRVADPDPQMRAPTSGEVRTSDSRIVLYQSRPLPDGATLIAFADVTDTRDLQSALADRSAALAEAERLKRDFVGNVSYELRTPLTTIIGYSELLERADGISERGRNHVAAVRAAATQLARSIDDVLDMAQIDAGEMALEIEDIRVSDLLLNAQERALKDAQLGGVTLAVECEEDVGLIRGDGKRLAQTLDHLVENALRQTPPGGRVTLSARRALGEVRLDVSDTGRGVPFHVQAHIFDRFVGRDRGGPGLGLALVKALVELHGGWVALESEPGNGSTFTCHLPETQQPGAMQPELGF
# B7: DivL(152–769) H579E (domain or fragment, Caulobacter crescentus, UniProt Q9RQQ9 152-769, looked up)
# chain: RADSGLPTAARFAAFVDSVVEPCWIAGADGQAIWGNAAFVRAVGAASAQAPALAGKSFDRGADAVVVEAAGKGERREALRWINVEGRRRAFRLSAQPLDGGGVGVFCADVTEIEDVRDAFKKHVEAHDETLNHIAEAVAIFSQTRRLSYHNTAFAELWGLEPAWLADRPTHGEVLDRLRQRRRLPETIDYAGWKAAELARYEDLGPQADDLWDLPDGRTLKVVRQPHPLGGMLLIYSDITGELRLKAQYNALIQVQQATLDKLNDAVAVFGSDGRLRLHNEAFETFWNVTPHALEAAGDFEGVVELCVPRLHDLSFWRELKGRVADPDPQMRAPTSGEVRTSDSRIVLYQSRPLPDGATLIAFADVTDTRDLQSALADRSAALAEAERLKRDFVGNVSYELRTPLTTIIGYSELLERADGISERGRNEVAAVRAAATQLARSIDDVLDMAQIDAGEMALEIEDIRVSDLLLNAQERALKDAQLGGVTLAVECEEDVGLIRGDGKRLAQTLDHLVENALRQTPPGGRVTLSARRALGEVRLDVSDTGRGVPFHVQAHIFDRFVGRDRGGPGLGLALVKALVELHGGWVALESEPGNGSTFTCHLPETQQPGAMQPELGF
# notes: as for B2
# B8: DivJ histidine kinase, Q03228 1-597 (enzyme)
# chain: RDDRYASEIIGLETLLDGLPHLAIAVRGQGQVTAVRGAAPPGVTRADLVNRGLTGAAAPGDRQRLTAAIAQAHREGSASLTFNPALGVERVVALDMHRVAPNQLVGVLRDITVERHREHALDQARIDAEALAAGRARFLANMSHELRTPLNAIMGFSDIMRARMFGPLSDRYAEYAELIHESGGHLLDLINDVLDMSKIEAERFELQRGVFDAREAVQAAMRLLRVQSDTAGVQLRGVLPPGELEVDADRRALKQIVLNLVSNALKFTPRGGQVTVTAHGYDGVLEIVVADTGVGISPEDLERLGRPYEQAGGAEQRARGTGLGLSLVRAFAQLHGGEMVIESRLGAGTTVSVRLPVLLAPMVAATPTPPAAPEAPSAPEPAPTVEEPPPASLGDNVIAFAPR
# modifications: not checked
# Key:
# [1] = molecular target: BODIPY-DivK (unphosphorylated DivK response regulator) (Caulobacter crescentus); assay: fluorescence polarisation; 250 nM BODIPY-DivK or BODIPY-DivK∼P with varying kinase concentrations (DivL 0–120 µM), 45 min to equilibrium; DivK∼P made with 250 nM DivJ, 1 mM ATP, 5 mM MgCl2; unphosphorylated DivK with 1 mM AMP-PNP, 5 mM MgCl2; apparent Kd
# [2] = molecular target: BODIPY-DivK∼P (phosphorylated DivK response regulator) (Caulobacter crescentus); assay: as above
# [3] = molecular target: the molecule itself; assay: SEC; gel filtration of the purified DivL point mutants; conditions not given
# [4] = molecular target: BODIPY-DivK∼P (phosphorylated DivK response regulator); assay: fluorescence polarization binding assay; conditions: parent: est. 36; read off a plot
# [5] = molecular target: BODIPY-DivK (unphosphorylated DivK response regulator); assay: fluorescence polarization binding assay; conditions: parent: est. 2.0; read off a plot
# [6] = molecular target: BODIPY-DivK∼P (phosphorylated DivK response regulator) (Caulobacter crescentus); assay: fluorescence polarisation; 250 nM BODIPY-DivK or BODIPY-DivK∼P with varying kinase concentrations (DivL 0–120 µM), 45 min to equilibrium; DivK∼P made with 250 nM DivJ, 1 mM ATP, 5 mM MgCl2; unphosphorylated DivK with 1 mM AMP-PNP, 5 mM MgCl2; apparent Kd; remark: listed apart in the source
# [7] = molecular target: BODIPY-DivK (unphosphorylated DivK response regulator) (Caulobacter crescentus); assay: as above; remark: listed apart in the source
Binder,Kd [1] [µM],Kd [2] [µM],stoichiometry N [3],response [4] [AU],response [5] [AU],Kd [6] [µM],Kd [7] [µM]
B1,26,2.4,,,,,
B2,,,2,3.2,2.9,,
B3,,,2,2.6,,,
B4,,,2,35,4,,
B5,,,2,3.2,2.3,,
B6,,,,,,11,> 150
B7,,,2,5.1,4.2,,
B8,8,16,,,,,
